Here are results for 38 variants from the RNAGym collection of RNA variant scans (doi:10.7554/elife.80360).

B1: Hairpin Ribozyme (parent)
chain: GUCCUCUUUCACGUGCGCGUGAAAGAGAGAAGUGAACCAGAGAAACACACGUUGUGGUAUAUUACCUGGUA

The variants in the data set derive from B1. The data set can be described thus: self-cleavage, relative activity (ratio to wild type); higher = more cleavage; co-transcriptional.
For the variant GUCCUCUUUCACGUGCGCGUGAAAGAGAGAAGUGAACCAGAGAAACACACGUUGCGGUAUGUUACCUGGUA, the self-cleavage was found to be 0.181. To GUCCUCUUUCACGUGCGCGUGAAAGAGAGAAGUGAACCAGAGAAACACACGUUGCGGUAGAUUACCUGGUA belongs 0.347. Take GUCCUCUUUCACGUGCGCGUGAAAGAGAGAAGUGAACCAGAGAAACACACGUUGCGGUAAAUUACCUGGUA: the self-cleavage was found to be 0.168.

As for GUCCUCUUUCACGUGCGCGUGAAAGAGAGAAGUGAACCAGAGAAACACACGUUUUGGUAUAUUACCUGCUA, the self-cleavage worked out at 0.194. As for GUCCUCUUUCACGUGCGCGUGAAAGAGAGAAGUGAACCAGAGAAACACACGUUUUGGUAUAUUACCUGUUA, the self-cleavage amounted to 0.182. Then GUCCUCUUUCACGUGCGCGUGAAAGAGAGAAGUGAACCAGAGAAACACACGUUGCGGUAUAGUACCUGGUA, with 0.132; and GUCCUCUUUCACGUGCGCGUGAAAGAGAGAAGUGAACCAGAGAAACACACGUUGGGGUACAUUACCUGGUA, with 0.408; and GUCCUCUUUCACGUGCGCGUGAAAGAGAGAAGUGAACCAGAGAAACACACGUUUUGGUAUAUUACCGGGUA, with 0.171. Regarding GUCCUCUUUCACGUGCGCGUGAAAGAGAGAAGUGAACCAGAGAAACACACGUUGAAGUAUAUUACCUGGUA, the self-cleavage came out at 0.168. To GUCCUCUUUCACGUGCGCGUGAAAGAGAGAAGUGAACCAGAGAAACACACGUUGAGGUAUAUUACCUAGUA belongs 0.163; to GUCCUCUUUCACGUGCGCGUGAAAGAGAGAAGUGAACCAGAGAAACACACGUUGGGGUAUAUAACCUGGUA, 0.346. To GUCCUCUUUCACGUGCGCGUGAAAGAGAGAAGUGAACCAGAGAAACACACGUUGAGGCAUAUUACCUGGUA belongs 0.427; to GUCCUCUUUCACGUGCGCGUGAAAGAGAGAAGUGAACCAGAGAAACACACGUUGAGGGAUAUUACCUGGUA, 0.183; to GUCCUCUUUCACGUGCGCGUGAAAGAGAGAAGUGAACCAGAGAAACACACGUUGAGGUAUAUUACCCGGUA, 0.149.

For the variant GUCCUCUUUCACGUGCGCGUGAAAGAGAGAAGUGAACCAGAGAAACACACGUUGGGUUAUAUUACCUGGUA, the self-cleavage was found to be 0.222. In the case of GUCCUCUUUCACGUGCGCGUGAAAGAGAGAAGUGAACCAGAGAAACACACGUUGCGGUAUAUUACCUGGGA, the self-cleavage was 0.203. To GUCCUCUUUCACGUGCGCGUGAAAGAGAGAAGUGAACCAGAGAAACACACGUUGGGGUAUAUUACCUGGUC belongs 0.708; to GUCCUCUUUCACGUGCGCGUGAAAGAGAGAAGUGAACCAGAGAAACACACGUUGCGGUAUAUUACCCGGUA, 0.172; to GUCCUCUUUCACGUGCGCGUGAAAGAGAGAAGUGAACCAGAGAAACACACGUUGAGGUAUUUUACCUGGUA, 0.214. Consider GUCCUCUUUCACGUGCGCGUGAAAGAGAGAAGUGAACCAGAGAAACACACGUUGGGGUGUAUUACCUGGUA, for which the self-cleavage was found to be 0.139. To GUCCUCUUUCACGUGCGCGUGAAAGAGAGAAGUGAACCAGAGAAACACACGUUGGGGUCUAUUACCUGGUA belongs 0.156; to GUCCUCUUUCACGUGCGCGUGAAAGAGAGAAGUGAACCAGAGAAACACACGUUCUGGUAUAUUACCGGGUA, 0.174; to GUCCUCUUUCACGUGCGCGUGAAAGAGAGAAGUGAACCAGAGAAACACACGUUGAGGUAUAUUUCCUGGUA, 0.302. Then GUCCUCUUUCACGUGCGCGUGAAAGAGAGAAGUGAACCAGAGAAACACACGUUGCGGUAUAUUACCUCGUA, with 0.159; and GUCCUCUUUCACGUGCGCGUGAAAGAGAGAAGUGAACCAGAGAAACACACGUUGCGGUAUAUUACCUUGUA, with 0.0915; and GUCCUCUUUCACGUGCGCGUGAAAGAGAGAAGUGAACCAGAGAAACACACGUUGCGGUAUAUCACCUGGUA, with 0.233. For GUCCUCUUUCACGUGCGCGUGAAAGAGAGAAGUGAACCAGAGAAACACACGUUUUGGUAUAAUACCUGGUA, the self-cleavage worked out at 0.229. For the variant GUCCUCUUUCACGUGCGCGUGAAAGAGAGAAGUGAACCAGAGAAACACACGUUUUGGUAUAGUACCUGGUA, the self-cleavage was 0.166. To GUCCUCUUUCACGUGCGCGUGAAAGAGAGAAGUGAACCAGAGAAACACACGUUUUGGUAUAUUACGUGGUA belongs 0.181; to GUCCUCUUUCACGUGCGCGUGAAAGAGAGAAGUGAACCAGAGAAACACACGUUUUGGUGUAUUACCUGGUA, 0.148. To GUCCUCUUUCACGUGCGCGUGAAAGAGAGAAGUGAACCAGAGAAACACACGUUUUCGUAUAUUACCUGGUA belongs 0.24; to GUCCUCUUUCACGUGCGCGUGAAAGAGAGAAGUGAACCAGAGAAACACACGUUUUAGUAUAUUACCUGGUA, 0.114. Turning to GUCCUCUUUCACGUGCGCGUGAAAGAGAGAAGUGAACCAGAGAAACACACGUUUAGGUAUAUUACCUGGUA, the self-cleavage came to 0.354.

Regarding GUCCUCUUUCACGUGCGCGUGAAAGAGAGAAGUGAACCAGAGAAACACACGUUGGAGUAUAUUACCUGGUA, the self-cleavage came out at 0.125. Then GUCCUCUUUCACGUGCGCGUGAAAGAGAGAAGUGAACCAGAGAAACACACGUUGAGGUAUAUUACCUGGGA, with 0.342; and GUCCUCUUUCACGUGCGCGUGAAAGAGAGAAGUGAACCAGAGAAACACACGUUGAGGUAUAUUACCUGGCA, with 0.311. Then GUCCUCUUUCACGUGCGCGUGAAAGAGAGAAGUGAACCAGAGAAACACACGUUCUGGUAUAUAACCUGGUA, with 0.103; and GUCCUCUUUCACGUGCGCGUGAAAGAGAGAAGUGAACCAGAGAAACACACGUUCUGGUAUAUCACCUGGUA, with 0.099.
